Data taken from US9193963B2, “Mutant endoglucanase” (Toray Industries, Inc., priority 2011, dated 2015).

B1: EGSh Wild-type: Staphylothermus hellenicus-derived endoglucanase, SEQ ID NO: 19, parent endoglucanase (protein)
chain: MPARTRIACAVILLLVFLALYIAWPVEGSFLKQQPYNELRGRVLGSNIQIPKDHIPYYHIVNGTIYMDDKLIHLFGVSWFGFELPDHIVYGLWARNWKDILKDIKEMGFNAIRLPFCHESITPGTKPVPGRISYSLNPDLRNLTSLEIMEKIISYANELNIFVLLDYHRIGCRYIEPLWYTDNFSEEQYIKDWVFLAQKFGKYPNVIGADIKNEPHDSASWGTGDNKTDFRLFAERVGQAILQVAPHWLIFIEGVQYTHVPEIDGRNPYSCFWGENLMGVKDYPVRLPKDKIVYSPHVYGPSVYNMPYFNDPEFPRNLPKIWELHFGYLKELGYAIVIGEWGGRYVGKDKVWQDAFADWLIQKGIYDFFYWCLNPESGDTGGIFKSDWRTVNQDKLNLIHRIINAASQAQASTISGKHDWKTYLVLIAPTLLPVLILVILVLLIIKRRYTKKQ
modifications: Staphylothermus hellenicus EGSh
B2: EGSh Mutant: mutant EGSh, SEQ ID NO: 20; residue corresponding to 273rd tryptophan substituted with alanine (protein)
chain: MPARTRIACAVILLLVFLALYIAWPVEGSFLKQQPYNELRGRVLGSNIQIPKDHIPYYHIVNGTIYMDDKLIHLFGVSWFGFELPDHIVYGLWARNWKDILKDIKEMGFNAIRLPFCHESITPGTKPVPGRISYSLNPDLRNLTSLEIMEKIISYANELNIFVLLDYHRIGCRYIEPLWYTDNFSEEQYIKDWVFLAQKFGKYPNVIGADIKNEPHDSASWGTGDNKTDFRLFAERVGQAILQVAPHWLIFIEGVQYTHVPEIDGRNPYSCFAGENLMGVKDYPVRLPKDKIVYSPHVYGPSVYNMPYFNDPEFPRNLPKIWELHFGYLKELGYAIVIGEWGGRYVGKDKVWQDAFADWLIQKGIYDFFYWCLNPESGDTGGIFKSDWRTVNQDKLNLIHRIINAASQAQASTISGKHDWKTYLVLIAPTLLPVLILVILVLLIIKRRYTKKQ
modifications: Staphylothermus hellenicus EGSh W273A
notes: residue corresponding to 273rd tryptophan substituted with alanine
B3: EGPh(W273Y): comparative mutant of EGPh, the 273rd tryptophan substituted with tyrosine, SEQ ID NO: 49 (protein)
chain: MEGNTILKIVLICTILAGLFGQVVPVYAENTTYQTPTGIYYEVRGDTIYMINVTSGEETPIHLFGVNWFGFETPNHVVHGLWKRNWEDMLLQIKSLGFNAIRLPFCTESVKPGTQPIGIDYSKNPDLRGLDSLQIMEKIIKKAGDLGIFVLLDYHRIGCTHIEPLWYTEDFSEEDFINTWIEVAKRFGKYWNVIGADLKNEPHSVTSPPAAYTDGTGATWGMGNPATDWNLAAERIGKAILKVAPHWLIFVEGTQFTNPKTDSSYKWGYNAWYGGNLMAVKDYPVNLPRNKLVYSPHVYGPDVYNQPYFGPAKGFPDNLPDIWYHHFGYVKLELGYSVVIGEFGGKYGHGGDPRDVIWQNKLVDWMIENKFCDFFYWSWNPDSGDTGGILQDDWTTIWEDKYNNLKRLMDSCSKSSSSTQSVIRSTTPTKSNTSKKICGPAILIILAVFSLLLRRAPR
modifications: Pyrococcus horikoshii EGPh W273Y
B4: EGPh(W273F): comparative mutant of EGPh, tryptophan substituted with phenyl alanine, SEQ ID NO: 50 (protein)
chain: MEGNTILKIVLICTILAGLFGQVVPVYAENTTYQTPTGIYYEVRGDTIYMINVTSGEETPIHLFGVNWFGFETPNHVVHGLWKRNWEDMLLQIKSLGFNAIRLPFCTESVKPGTQPIGIDYSKNPDLRGLDSLQIMEKIIKKAGDLGIFVLLDYHRIGCTHIEPLWYTEDFSEEDFINTWIEVAKRFGKYWNVIGADLKNEPHSVTSPPAAYTDGTGATWGMGNPATDWNLAAERIGKAILKVAPHWLIFVEGTQFTNPKTDSSYKWGYNAWFGGNLMAVKDYPVNLPRNKLVYSPHVYGPDVYNQPYFGPAKGFPDNLPDIWYHHFGYVKLELGYSVVIGEFGGKYGHGGDPRDVIWQNKLVDWMIENKFCDFFYWSWNPDSGDTGGILQDDWTTIWEDKYNNLKRLMDSCSKSSSSTQSVIRSTTPTKSNTSKKICGPAILIILAVFSLLLRRAPR
modifications: Pyrococcus horikoshii EGPh W273F

Legend:
[1] = Activity to degrade phosphoric acid swollen cellulose; assay type: biochemical
Experimental: The term “identity” refers to the percentage of amino acid residues identical to and amino acid residues analogous to the other amino acid residues in all the amino acid residues overlapped when an optimum alignment is performed by introducing gaps or no gaps into two amino acid sequences and then aligning the two amino acid sequences. Such an identity can be found using a method known by persons skilled in the art, sequence analysis software, and the like (a known algorithm such as BLAST or FASTA). The term “endoglucanase activity” is as defined above and can be determined by adding an enzyme solution to a substrate solution of phosphoric acid swollen cellulose that has been dissolved in 50 mM acetic acid-sodium acetate buffer (pH 5.2) or the like, performing 1 hour of reaction at 30° C. to 85° C., stopping the reaction by changing the pH if necessary, and then determining the concentration of glucose in the reaction solution using a glucose determination kit, for example.
The mutants obtained in Comparative Example 1 were compared in terms of activity by a technique similar to that in Example 3. The concentration (g/L) of glucose generated by each parent endoglucanase under the above reaction conditions was determined to be 100%.

[2] = Inhibition experiment with vanillin: degradation of phosphoric acid swollen cellulose; assay type: biochemical; details: enzyme 0.5 μM, 1 hour, 50° C., parent at 0 mM = 100%
[3] = Inhibition experiment with ferulic acid: degradation of phosphoric acid swollen cellulose; assay type: biochemical; details: enzyme 0.5 μM, 1 hour, 50° C., parent at 0 mM = 100%
Experimental: This substance was diluted using buffer and water to obtain a 2 wt % mixture so that the final concentration of sodium acetate was 50 mM (pH 5.2). This was designated as phosphoric acid swollen cellulose and used for the following examples.
The activity of the wild-type and the mutant endoglucanases to degrade phosphoric acid swollen cellulose was measured in the presence of ferulic acid. 1% phosphoric acid swollen cellulose/50 mM acetate buffer (pH 5.2) was used as a substrate. Ferulic acid (Sigma Aldrich) was added at final concentrations of 0, 5, 10, and 15 mM. The enzymes prepared in Reference Example 1 and Example 2 were each added at a final concentration of 0.5 μM, followed by 1 hour of enzymatic reaction at 50° C.

[4] = Saccharification of lignocellulose 1 with Celluclast and endoglucanase; assay type: biochemical, Rice straw; details: 5 wt % Lignocellulose 1, pH 5.2, 50° C., 24 hours; 1.0 mg/mL cellulase + 0.1 mg/mL endoglucanase
Experimental: (§1) Rice straw was used as cellulose. The cellulose was added to a small reactor (Taiatsu Techno Corporation, TVS-N2 (30 ml)), and then cooled with liquid nitrogen. An ammonia gas was fed to the reactor, thereby completely immersing the sample in the liquid ammonia. The reactor was closed using its lid, and then left to stand at room temperature for 15 minutes. Subsequently, treatment was performed for 1 hour in an oil bath at 150° C. After treatment, the reactor was removed from the oil bath, an ammonia gas leak was immediately performed within a draft chamber. The reactor was vacuumed using a vacuum pump to 10 Pa for drying. The resultant was used as lignocellulose 1 in the following examples.
(§2) The changes in the amount of glucose generated when the enzyme composition had been caused to act on lignocellulose substrates were compared. The substrates were prepared by suspending 5 wt % lignocelluloses (1 to 3) (prepared in Reference Example 3) in 50 mM acetate buffer (pH5.2). Reactions were performed at 50° C. for 24 hours. The concentrations of the generated glucose were measured after adequate sampling. As a filamentous bacterium-derived cellulase mixture, commercially available Trichoderma reesei-derived cellulase (Celluclast, Sigma) was used. As endoglucanases, the mutant endoglucanases prepared in Example 2 and the wild-type endoglucanases prepared in Reference Example 1 were separately used. The following quantities of enzymes were added: 1.0 mg/mL cellulase, and 0.1 mg/mL endoglucanase (in an amount one tenth that of the cellulase).

[5] = Saccharification of lignocellulose 2 with Celluclast and endoglucanase; assay type: biochemical, Rice straw; details: 5 wt % Lignocellulose 2, pH 5.2, 50° C., 24 hours; 1.0 mg/mL cellulase + 0.1 mg/mL endoglucanase
Experimental: (§3) Rice straw was used as cellulose. Cellulose was immersed in a 1% aqueous sulfuric acid solution, and then autoclaved for 30 minutes at 150° C. (Nitto Koatsu Co. Ltd.). After treatment, the resultant was subjected to solid-liquid separation into an aqueous sulfuric acid solution (hereinafter, referred to as “dilute-sulfuric-acid-treated solution”) and cellulose treated with sulfuric acid. Next, the cellulose treated with sulfuric acid was mixed and agitated with the dilute-sulfuric-acid-treated solution so that the solid content concentration was 10 wt %. Then the mixture was adjusted to around pH 5 using sodium hydroxide. The resultant was used as lignocellulose 2 for the following examples.
as §2

[6] = Saccharification of lignocellulose 3 with Celluclast and endoglucanase; assay type: biochemical, Rice straw; details: 5 wt % Lignocellulose 3, pH 5.2, 50° C., 24 hours; 1.0 mg/mL cellulase + 0.1 mg/mL endoglucanase
Experimental: (§4) Rice straw was used as cellulose. The cellulose was immersed in water, and then autoclaved with agitation at 180° C. for 20 minutes (Nitto Koatsu Co. Ltd.). Pressure at this time was 10 MPa. After treatment, a solution component (hereinafter, referred to as “hydrothermally treated solution”) and the treated biomass component were subjected to solid-liquid separation by centrifugation (3000 G). The thus treated biomass component was used as lignocellulose 3 for the following examples.
as §2

[7] = Saccharification of lignocellulose 1 with Trichoderma reesei culture solution and endoglucanase; assay type: biochemical, Rice straw; details: Lignocellulose 1, 24 hours; cellulase 1.0 mg/mL + endoglucanase 0.1 mg/mL + β-glucosidase (Novozyme 188) 0.01 mg/mL
Experimental: as §1, §2
(§5) Lignocelluloses (1-3) prepared in Reference Example 3 were used as substrates. The Trichoderma reesei culture solution prepared in Reference Example 4 was used as a filamentous bacterium-derived cellulase mixture. Lignocelluloses (1-3) were hydrolyzed in a manner similar to that in Example 7, except for the quantities of the enzymes added: cellulase (1.0 mg/mL); endoglucanase (0.1 mg/mL (in an amount one tenth that of the cellulase); and β-glucosidase (Novozyme 188) (0.01 mg/mL (in an amount one hundredth that of the cellulase).

[8] = Saccharification of lignocellulose 2 with Trichoderma reesei culture solution and endoglucanase; assay type: biochemical, Rice straw; details: Lignocellulose 2, 24 hours; cellulase 1.0 mg/mL + endoglucanase 0.1 mg/mL + β-glucosidase (Novozyme 188) 0.01 mg/mL
Experimental: as §3, §2, §5

[9] = Saccharification of lignocellulose 3 with Trichoderma reesei culture solution and endoglucanase; assay type: biochemical, Rice straw; details: Lignocellulose 3, 24 hours; cellulase 1.0 mg/mL + endoglucanase 0.1 mg/mL + β-glucosidase (Novozyme 188) 0.01 mg/mL
Experimental: as §4, §2, §5

[10] = 1% phosphoric acid swollen cellulose, pH 5.2, enzyme 0.5 μM, 1 hour, 50° C., glucose generated by each parent endoglucanase = 100%
[11] = Comparative Example 2, technique similar to Example 3, parent endoglucanase = 100%

Row | Molecule | Relative activity [1, 10] | Relative activity to degrade phosphoric acid swollen cellulose ([2]; vanillin 0 mM) | Relative activity to degrade phosphoric acid swollen cellulose ([2]; vanillin 5 mM) | Relative activity to degrade phosphoric acid swollen cellulose ([2]; vanillin 10 mM) | Relative activity to degrade phosphoric acid swollen cellulose ([2]; vanillin 15 mM) | Relative activity to degrade phosphoric acid swollen cellulose ([3]; ferulic acid 0 mM) | Relative activity to degrade phosphoric acid swollen cellulose ([3]; ferulic acid 5 mM) | Relative activity to degrade phosphoric acid swollen cellulose ([3]; ferulic acid 10 mM) | Relative activity to degrade phosphoric acid swollen cellulose ([3]; ferulic acid 15 mM) | Relative activity [1, 11] | other results
1 | B1 | 100% | 100% | 40% | 35% | 30% | 100% | 65% | 55% | 50% | – | Concentration of glucose generated, Celluclast + Wild-type [4]: 12 g/L; Concentration of glucose generated, Celluclast + Wild-type [5]: 11 g/L; Concentration of glucose generated, Celluclast + Wild-type [6]: 12 g/L; Concentration of glucose generated, Culture solution + Wild-type [7]: 9 g/L; Concentration of glucose generated, Culture solution + Wild-type [8]: 8 g/L; Concentration of glucose generated, Culture solution + Wild-type [9]: 9 g/L
2 | B2 | 100% | 100% | 90% | 85% | 80% | 100% | 95% | 85% | 80% | – | Concentration of glucose generated, Celluclast + Mutant [4]: 14 g/L; Concentration of glucose generated, Celluclast + Mutant [5]: 15 g/L; Concentration of glucose generated, Celluclast + Mutant [6]: 15 g/L; Concentration of glucose generated, Culture solution + Mutant [7]: 11 g/L; Concentration of glucose generated, Culture solution + Mutant [8]: 12 g/L; Concentration of glucose generated, Culture solution + Mutant [9]: 12 g/L
3 | B3 | – | – | – | – | – | – | – | – | – | 100% | –
4 | B4 | – | – | – | – | – | – | – | – | – | 100% | –
